“And” between values parts separate entries of the source, which are not always exact repeats. Identical values can stand only once. Like-named read-outs stand apart in the source and are kept apart here.
How the values were obtained:
SEC [1] = target: the molecule itself; test: SEC
SEC [2] = target: the molecule itself; test: SEC; remark: listed apart in the source
SEC [3] = target: the molecule itself; test: SEC; remark: listed apart in the source
SEC [4] = target: the molecule itself; test: SEC; remark: listed apart in the source
SEC [5] = target: the molecule itself; test: SEC; remark: listed apart in the source
SEC-MALS = target: the molecule itself; test: SEC-MALS
SEC [6] = target: the molecule itself; test: SEC; remark: listed apart in the source
[7] = target: the molecule itself
SEC [8] = target: the molecule itself; test: SEC; remark: listed apart in the source

B1: human ribonucleotide reductase RR1 (hRRM1), wild type (enzyme, UniProt P23921 1-792, looked up)
chain: MHVIKRDGRQERVMFDKITSRIQKLCYGLNMDFVDPAQITMKVIQGLYSGVTTVELDTLAAETAATLTTKHPDYAILAARIAVSNLHKETKKVFSDVMEDLYNYINPHNGKHSPMVAKSTLDIVLANKDRLNSAIIYDRDFSYNYFGFKTLERSYLLKINGKVAERPQHMLMRVSVGIHKEDIDAAIETYNLLSERWFTHASPTLFNAGTNRPQLSSCFLLSMKDDSIEGIYDTLKQCALISKSAGGIGVAVSCIRATGSYIAGTNGNSNGLVPMLRVYNNTARYVDQGGNKRPGAFAIYLEPWHLDIFEFLDLKKNTGKEEQRARDLFFALWIPDLFMKRVETNQDWSLMCPNECPGLDEVWGEEFEKLYASYEKQGRVRKVVKAQQLWYAIIESQTETGTPYMLYKDSCNRKSNQQNLGTIKCSNLCTEIVEYTSKDEVAVCNLASLALNMYVTSEHTYDFKKLAEVTKVVVRNLNKIIDINYYPVPEACLSNKRHRPIGIGVQGLADAFILMRYPFESAEAQLLNKQIFETIYYGALEASCDLAKEQGPYETYEGSPVSKGILQYDMWNVTPTDLWDWKVLKEKIAKYGIRNSLLIAPMPTASTAQILGNNESIEPYTSNIYTRRVLSGEFQIVNPHLLKDLTERGLWHEEMKNQIIACNGSIQSIPEIPDDLKQLYKTVWEISQKTVLKMAAERGAFIDQSQSLNIHIAEPNYGKLTSMHFYGWKQGLKTGMYYLRTRPAANPIQFTLNKEKLKDKEKVSKEEEEKERNTAAMVCSLENRDECLMCGS
stoichiometry N (SEC [1]): 2
stoichiometry N (SEC [2]): 6

B2: hRRM1 H2E (enzyme, human, UniProt P23921 1-792, looked up)
chain: MEVIKRDGRQERVMFDKITSRIQKLCYGLNMDFVDPAQITMKVIQGLYSGVTTVELDTLAAETAATLTTKHPDYAILAARIAVSNLHKETKKVFSDVMEDLYNYINPHNGKHSPMVAKSTLDIVLANKDRLNSAIIYDRDFSYNYFGFKTLERSYLLKINGKVAERPQHMLMRVSVGIHKEDIDAAIETYNLLSERWFTHASPTLFNAGTNRPQLSSCFLLSMKDDSIEGIYDTLKQCALISKSAGGIGVAVSCIRATGSYIAGTNGNSNGLVPMLRVYNNTARYVDQGGNKRPGAFAIYLEPWHLDIFEFLDLKKNTGKEEQRARDLFFALWIPDLFMKRVETNQDWSLMCPNECPGLDEVWGEEFEKLYASYEKQGRVRKVVKAQQLWYAIIESQTETGTPYMLYKDSCNRKSNQQNLGTIKCSNLCTEIVEYTSKDEVAVCNLASLALNMYVTSEHTYDFKKLAEVTKVVVRNLNKIIDINYYPVPEACLSNKRHRPIGIGVQGLADAFILMRYPFESAEAQLLNKQIFETIYYGALEASCDLAKEQGPYETYEGSPVSKGILQYDMWNVTPTDLWDWKVLKEKIAKYGIRNSLLIAPMPTASTAQILGNNESIEPYTSNIYTRRVLSGEFQIVNPHLLKDLTERGLWHEEMKNQIIACNGSIQSIPEIPDDLKQLYKTVWEISQKTVLKMAAERGAFIDQSQSLNIHIAEPNYGKLTSMHFYGWKQGLKTGMYYLRTRPAANPIQFTLNKEKLKDKEKVSKEEEEKERNTAAMVCSLENRDECLMCGS
stoichiometry N (SEC [2]): 2 and 6

B3: hRRM1 D57N (enzyme, human, UniProt P23921 1-792, looked up)
chain: MHVIKRDGRQERVMFDKITSRIQKLCYGLNMDFVDPAQITMKVIQGLYSGVTTVELNTLAAETAATLTTKHPDYAILAARIAVSNLHKETKKVFSDVMEDLYNYINPHNGKHSPMVAKSTLDIVLANKDRLNSAIIYDRDFSYNYFGFKTLERSYLLKINGKVAERPQHMLMRVSVGIHKEDIDAAIETYNLLSERWFTHASPTLFNAGTNRPQLSSCFLLSMKDDSIEGIYDTLKQCALISKSAGGIGVAVSCIRATGSYIAGTNGNSNGLVPMLRVYNNTARYVDQGGNKRPGAFAIYLEPWHLDIFEFLDLKKNTGKEEQRARDLFFALWIPDLFMKRVETNQDWSLMCPNECPGLDEVWGEEFEKLYASYEKQGRVRKVVKAQQLWYAIIESQTETGTPYMLYKDSCNRKSNQQNLGTIKCSNLCTEIVEYTSKDEVAVCNLASLALNMYVTSEHTYDFKKLAEVTKVVVRNLNKIIDINYYPVPEACLSNKRHRPIGIGVQGLADAFILMRYPFESAEAQLLNKQIFETIYYGALEASCDLAKEQGPYETYEGSPVSKGILQYDMWNVTPTDLWDWKVLKEKIAKYGIRNSLLIAPMPTASTAQILGNNESIEPYTSNIYTRRVLSGEFQIVNPHLLKDLTERGLWHEEMKNQIIACNGSIQSIPEIPDDLKQLYKTVWEISQKTVLKMAAERGAFIDQSQSLNIHIAEPNYGKLTSMHFYGWKQGLKTGMYYLRTRPAANPIQFTLNKEKLKDKEKVSKEEEEKERNTAAMVCSLENRDECLMCGS
stoichiometry N (SEC [3]): 6
stoichiometry N (SEC [4]): 2

B4: hRRM1 D16R (enzyme, human, UniProt P23921 1-792, looked up)
chain: MHVIKRDGRQERVMFRKITSRIQKLCYGLNMDFVDPAQITMKVIQGLYSGVTTVELDTLAAETAATLTTKHPDYAILAARIAVSNLHKETKKVFSDVMEDLYNYINPHNGKHSPMVAKSTLDIVLANKDRLNSAIIYDRDFSYNYFGFKTLERSYLLKINGKVAERPQHMLMRVSVGIHKEDIDAAIETYNLLSERWFTHASPTLFNAGTNRPQLSSCFLLSMKDDSIEGIYDTLKQCALISKSAGGIGVAVSCIRATGSYIAGTNGNSNGLVPMLRVYNNTARYVDQGGNKRPGAFAIYLEPWHLDIFEFLDLKKNTGKEEQRARDLFFALWIPDLFMKRVETNQDWSLMCPNECPGLDEVWGEEFEKLYASYEKQGRVRKVVKAQQLWYAIIESQTETGTPYMLYKDSCNRKSNQQNLGTIKCSNLCTEIVEYTSKDEVAVCNLASLALNMYVTSEHTYDFKKLAEVTKVVVRNLNKIIDINYYPVPEACLSNKRHRPIGIGVQGLADAFILMRYPFESAEAQLLNKQIFETIYYGALEASCDLAKEQGPYETYEGSPVSKGILQYDMWNVTPTDLWDWKVLKEKIAKYGIRNSLLIAPMPTASTAQILGNNESIEPYTSNIYTRRVLSGEFQIVNPHLLKDLTERGLWHEEMKNQIIACNGSIQSIPEIPDDLKQLYKTVWEISQKTVLKMAAERGAFIDQSQSLNIHIAEPNYGKLTSMHFYGWKQGLKTGMYYLRTRPAANPIQFTLNKEKLKDKEKVSKEEEEKERNTAAMVCSLENRDECLMCGS
stoichiometry N (SEC [5]): 6
stoichiometry N (SEC-MALS): 2

B5: hRRM1 with the first 74 residues deleted (t-hRRM1) (domain or fragment, human, UniProt P23921 75-792, looked up)
chain: AILAARIAVSNLHKETKKVFSDVMEDLYNYINPHNGKHSPMVAKSTLDIVLANKDRLNSAIIYDRDFSYNYFGFKTLERSYLLKINGKVAERPQHMLMRVSVGIHKEDIDAAIETYNLLSERWFTHASPTLFNAGTNRPQLSSCFLLSMKDDSIEGIYDTLKQCALISKSAGGIGVAVSCIRATGSYIAGTNGNSNGLVPMLRVYNNTARYVDQGGNKRPGAFAIYLEPWHLDIFEFLDLKKNTGKEEQRARDLFFALWIPDLFMKRVETNQDWSLMCPNECPGLDEVWGEEFEKLYASYEKQGRVRKVVKAQQLWYAIIESQTETGTPYMLYKDSCNRKSNQQNLGTIKCSNLCTEIVEYTSKDEVAVCNLASLALNMYVTSEHTYDFKKLAEVTKVVVRNLNKIIDINYYPVPEACLSNKRHRPIGIGVQGLADAFILMRYPFESAEAQLLNKQIFETIYYGALEASCDLAKEQGPYETYEGSPVSKGILQYDMWNVTPTDLWDWKVLKEKIAKYGIRNSLLIAPMPTASTAQILGNNESIEPYTSNIYTRRVLSGEFQIVNPHLLKDLTERGLWHEEMKNQIIACNGSIQSIPEIPDDLKQLYKTVWEISQKTVLKMAAERGAFIDQSQSLNIHIAEPNYGKLTSMHFYGWKQGLKTGMYYLRTRPAANPIQFTLNKEKLKDKEKVSKEEEEKERNTAAMVCSLENRDECLMCGS
stoichiometry N (SEC [6]): 2

B6: ScRR1 D182R (enzyme, S. cerevisiae)
chain: MYVYKRDGRKEPVQFDKITARISRLCYGLDPKHIDAVKVTQRIISGVYEGVTTIELDNLAAETCAYMTTVHPDYATLAARIAISNLHKQTTKQFSKVVEDLYRYVNAATGKPAPMISDDVYNIVMENKDKLNSAIVYDRDFQYSYFGFKTLERSYLLRINGQVAERPQHLIMRVALGIHGRRIEAALETYNLMSLKYFTHASPTLFNAGTPKPQMSSCFLVAMKEDSIEGIYDTLKECALISKTAGGIGLHIHNIRSTGSYIAGTNGTSNGLIPMIRVFNNTARYVDQGGNKRPGAFALYLEPWHADIFDFIDIRKNHGKEEIRARDLFPALWIPDLFMKRVEENGTWTLFSPTSAPGLSDCYGDEFEALYTRYEKEGRGKTIKAQKLWYSILEAQTETGTPFVVYKDACNRKSNQKNLGVIKSSNLCCEIVEYSAPDETAVCNLASVALPAFIETSEDGKTSTYNFKKLHEIAKVVTRNLNRVIDRNYYPVEEARKSNMRHRPIALGVQGLADTFMLLRLPFDSEEARLLNIQIFETIYHASMEASCELAQKDGPYETFQGSPASQGILQFDMWDQKPYGMWDWDTLRKDIMKHGVRNSLTMAPMPTASTSQILGYNECFEPVTSNMYSRRVLSGEFQVVNPYLLRDLVDLGIWDEGMKQYLITQNGSIQGLPNVPQELKDLYKTVWEISQKTIINMAADRSVYIDQSHSLNLFLRAPTMGKLTSMHFYGWKKGLKTGMYYLRTQAASAAIQFTIDQKIADQATENVADISNLKRPSYMPSSASYAASDFVPAAVTANATIPSLDSSSEASREASPAPTGSHSLTKGMAELNVQESKVEVPEVPAPTKNEEKAAPIVDDEETEFDIYNSKVIACAIDNPEACEMCSG
stoichiometry N [7]: 6

B7: S. cerevisiae ribonucleotide reductase RR1 (ScRR1), wild type (enzyme)
chain: MYVYKRDGRKEPVQFDKITARISRLCYGLDPKHIDAVKVTQRIISGVYEGVTTIELDNLAAETCAYMTTVHPDYATLAARIAISNLHKQTTKQFSKVVEDLYRYVNAATGKPAPMISDDVYNIVMENKDKLNSAIVYDRDFQYSYFGFKTLERSYLLRINGQVAERPQHLIMRVALGIHGRDIEAALETYNLMSLKYFTHASPTLFNAGTPKPQMSSCFLVAMKEDSIEGIYDTLKECALISKTAGGIGLHIHNIRSTGSYIAGTNGTSNGLIPMIRVFNNTARYVDQGGNKRPGAFALYLEPWHADIFDFIDIRKNHGKEEIRARDLFPALWIPDLFMKRVEENGTWTLFSPTSAPGLSDCYGDEFEALYTRYEKEGRGKTIKAQKLWYSILEAQTETGTPFVVYKDACNRKSNQKNLGVIKSSNLCCEIVEYSAPDETAVCNLASVALPAFIETSEDGKTSTYNFKKLHEIAKVVTRNLNRVIDRNYYPVEEARKSNMRHRPIALGVQGLADTFMLLRLPFDSEEARLLNIQIFETIYHASMEASCELAQKDGPYETFQGSPASQGILQFDMWDQKPYGMWDWDTLRKDIMKHGVRNSLTMAPMPTASTSQILGYNECFEPVTSNMYSRRVLSGEFQVVNPYLLRDLVDLGIWDEGMKQYLITQNGSIQGLPNVPQELKDLYKTVWEISQKTIINMAADRSVYIDQSHSLNLFLRAPTMGKLTSMHFYGWKKGLKTGMYYLRTQAASAAIQFTIDQKIADQATENVADISNLKRPSYMPSSASYAASDFVPAAVTANATIPSLDSSSEASREASPAPTGSHSLTKGMAELNVQESKVEVPEVPAPTKNEEKAAPIVDDEETEFDIYNSKVIACAIDNPEACEMCSG
stoichiometry N (SEC [8]): 6

Source: PMC3101628 (Nature structural & molecular biology, 2011)
